This is an account of results in article doi:10.1101/2023.11.22.568361 (bioRxiv, 2023).

The series deals with the molecule itself. Description: AUC.

Take MAGNGGDAALALLLLDRLNQLESKMSGKGQQQQGQTV [isolated LRS peptide (N:210–246)]: the binding result is on record as “binds”.
